Measured values as given in the DeepSol protein solubility set.

Assay: soluble on expression in E. coli; label from the status in PepcDB or PDB records

| Sequence | soluble on expression in E. coli |
| --- | --- |
| MGSDKIHHHHHHMAKKKTKFMCQECGYESAKWMGKCPGCQSWNSMVEEFTEVKAKSSRSYVTSGAGIAKPQPITKVEREQEPRIDTSMKELNRVLGGGIVPGSLVLVGGDPGIGKSTLLLQLSARLADLKQRVLYISGEESVKQTKIRSDRLGVLSDHLYVLAETDMEKIEQAIGEVDPTLVIIDSIQTVYQDEITSAPGSVAQVRECTASFMRIAKTTGVAIFIVGHVTKQGAIAGPKLLEHMVDSVLYFEGERHHTYRILRAVKNRFGSTNEMGIFEMKESGLEEVANPSEIFLEDRSSGVAGSTVVASMEGTRPVLVELQALISPTSFGNPRRMATGVDHNRISLLMAVLEKRVGMLLQNQDAYVNVAGGVRLDEPAIDLGIAVSIASSFRNQHTNPHEVVIGEIGLTGEVRRVSRIDQRVNEAAKLGFKRVIIPDKNLGGWTIPSTIEVIGVSTVQDALEVTLGR | not soluble |
| MGSDKIHHHHHHMAKSALRVLEIMEFVATHKAGCATHTEISQALGIPKSSLTALLTDLQRPGYLELDRETGRYAIGSQVMFLAHAYLRNLNIVRLGTPVVHDVFLKLNVYTTMVIPKGDMCLVVCSESLPSPLAHSLSIGQHIPMLHSALGRAILAFLEPEEVERFLHDYTPTPYTDRTKTGIEEVRKALAQVRKAGFAHMQGEYLPGIIGIAVPVFNLENRPIAAIGIGIPAVEGTTEFEKRICKQLLHSADTLSRRLGAKLKPTPSKLLRKGEEE | not soluble |
| MGSDKIHHHHHHMALASTLATCLNSKNTQYDIIHHPYTLSSMATAEAAHIPGDRLAKTLLLEDEMGYVAAVIPSNHHLHMAALCEQTGRKLVLAHEDEIREVFKDCDLGAIPPVAMAYGMQTYVDDSLMKHPDVYFEAGDHQELVHMSMDQFSSLMSDAEQGHFSRRMM | not soluble |
| MGSDKIHHHHHHMALLEVKNLKKYFPIIKRGFRRKVVGYLKAVDGISFHIEEGETLGLVGESGCGKTTTAKLIMRGIEPTEGEIVLNMDGEKVDITKLSEKELREKGVRRFLQMIFQDPYSSLNPRMTVRDIIAEPLVVNGVIKGKEEIDAIVSDLLRAVGLRPEYMQRYPHAFSGGQRQRIAIARAIALKPKLVLCDEPTSALDVSVQAQIINLLKDLQKEYNLTYLFISHDLGVVEHITNRVAVMYVGRIVELAETEELFSSPKHPYTEALLSAVPKPDPKRKRKKAQLTGEVPDPSNPPSGCYFHPRCPYAKAICKEVYPDLRNVGTDQNPHLVACHFADSLKLEGVGTM | not soluble |
| MGSDKIHHHHHHMANEATQELFQVLDNTAIILQNELEISYLEAVYETGENLFQKEVLQKEELSSEKQLKLQASYESIELENFSNEEIRKGLQLALLKGMKHGIQVNHQMTPDSIGFIVAYLLEKVIQKKKNVSILDPACGTANLLTTVINQLELKGDVDVHASGVDVDDLLISLALVGADLQRQKMTLLHQDGLANLLVDPVDVVISDLPVGYYPDDENAKTFELCREEGHSFAHFLFIEQGMRYTKPGGYLFFLVPDAMFGTSDFAKVDKFIKKNGHIEGIIKLPETLFKSEQARKSILILEKADVDVKPPKEVLLANLSSLTDPSVTAPILAEIENWFKSKQ | soluble |
| MGSDKIHHHHHHMANTPLLITLLPSSGVDLSRWLMAHYGVTYEERPHAPIFHVLALKSWGEGKDGYPLFVHADRTTKTVGCRKIAEFFDPSAPADKTLLPDPDAEPELAAQVDDIVKYSYWTIGGDVVNWSYWNFLKYKWVVWPSLTTKVPWYEKLTCLVAFRLIRFLMYKGLKLDQRVADASLKEILAGFDKFDAMLADGRPYLTGDRMTYADLATAAALGPMILAQGYHGMLPNQAKCPVFMQGIYQQLRQRPTGLFIQRMYDQHRPAQLLQI | not soluble |
| MGSDKIHHHHHHMAPRGNQMLGNAHFRKHWHKRIKTWFDQPARKLRRRQNRQAKAVEIAPRPVAGLLRSVVRCPQKRYNTKTRLGRGFSLQELKAAGISQAQARTIGIAVDVRRTNKTAEGLKANADRLKEYKAKLILFPKKASAPKKGDSSAEELKVAAQLRGDVLPLSHTITFDEPRQVTDAERKVEIFRLLRKERADKKYRGKREKRAREAAEENK | not soluble |
| MGSDKIHHHHHHMAPRIKTRDRIAQASLELFNAQGERSVTTNHIATHLGISPGNLYYHYPNKQAIIAELFAEYESHVESFLRLPEGRGLTVDDKTFYLEALLAAMWRYRFLHRDLEHLLESDPELAARYRAFAQRCLVNAKAIYRGFTEAGILRMNETQLEALTLNAWIILTSWVRFLCTTLDLDGDLSEAQLRRGIYQVLALESGHIEAQAQDAVDGISERLYVPL | not soluble |
| MGSDKIHHHHHHMAPRKVIITCAVTGSVHTPSMSPYLPVTPDQIASDAIAAAEAGASILHLHARDPKDGRPTADPDVFMQFLPRIKQATDAVINITTGGSSLMTLDQRLAAPLRAEPEMCSLNMGSMNFALFPMLDKPREWQHEWEPKLLEATRDTIFKNTFADMEGVLERLGKGCGTRFEFECYDVGHLYSLAHFRDRGLVSGPLFIQFVLGILGGIGADPDNLVHMKRIADKLFGDSYQFSVLAAGRQQMPLISIAAAMGGNVRVGLEDSLYDGRQLAKSNADQVRRIRGILDGLSLEVATPAEAREMLALKGGDRVAF | not soluble |
| MGSDKIHHHHHHMAQYSAQFNHAKVLVLGDVMLDRYWFGATNRISPEAPVPVVRVQQNEERAGGAANVAMNIASLNVPVQLLGLTGQDEAGAALTSLLQQQKIACDFVQLATHPTITKLRILSRHQQLLRLDFEEDFQNMTSADLLKKLESAVKNYGALILSDYGKGTLNEVQKMIQIARNANVPVLIDPKGTDFERYRGATLLTPNMSEFEAVVGKCHSEQEIIDKGLKLISEINLTALLVTRSEKGMTLLRPNQPVYHLPTEAKEVFDVTGAGDTVISVLATALADGRSFEEACYLANVAAGIVVGKLGTSTVSTVELENAIHGRTGTGFGVMTEAELKEAVKLAKDRGEKIVMTNGCFDILHPGHVSYLDNARKFGDRLIVAVNTDDSVKRLKGEERPINNLASRMAVLAGLSSVDWLVPFGEDTPQRLIGEVLPDLLVKGGDYKPEEIAGSKEVWANGGDVKVLNFENGFSTSNVIKKIKHLEK | not soluble |
| MGSDKIHHHHHHMARDLQNHLLFEVATEVTNRVGGIYSVLKSKAPVTVAQYGDNYTLLGPLNKATYESEVEKLDWEDESIFPEELLPIQKTLMSMREKGVNFVYGNWLIEGAPRVILFELDSVRHFLNEWKADLWSLVGIPSPEHDHETNDAILLGYVVVWFLGEVSKLDSSHAIIGHFHEWLAGVALPLCRKKRIDVVTIFTTHATLLGRYLCAAGDVDFYNNLQYFDVDQEAGKRGIYHRYCIERAAAHTADVFTTVSQITALEAEHLLKRKPDGILPNGLNVVKFQAVHEFQNLHALKKDKINDFVRGHFHGCFDFDLDNTVYFFIAGRYEYKNKGADMFIESLARLNYRLKVSGSKKTVVAFLIMPAKTNSFTVEALKSQAIVKSLENTVNEVTASIGKRIFEHTMRYPHNGLESELPTNLDELLKSSEKVLLKKRVLALRRPYGELPPVVTHNMCDDANDPILNQIRHVRLFNDSSDRVKVIFHPEFLNANNPILGLDYDEFVRGCHLGVFPSYYEPWGYTPAECTVMGVPSITTNVSGFGAYMEDLIETDQAKDYGIYIVDRRFKSPDESVEQLADYMEEFVNKTRRQRINQRNRTERLSDLLDWKRMGLEYVKARQLGLRRAYPEQFKQLVGETISDANMNTLAGGKKFKIARPLSVPGSPKVRSNSTVYMTPGDLGTLQDANNADDYFNLSTNGAIDNDDDDNDTSAYYEDN | not soluble |
| MGSDKIHHHHHHMATETLTKSDAITQSLRAAVDRNFNDQVAFLQRMVQFRSVRGEEAPQQEWLAQQFADRGYKVDTFSLADVDIASHPKAAPMDTIDPAGSMQVVATADSDGKGRSLILQGHIDVVPEGPVDLWSDPPYEAKVRDGWMIGRGAQDMKGGVSAMIFALDAIRTAGYAPDARVHVQTVTEEESTGNGALSTLMRGYRADACLIPEPTGHTLTRAQVGAVWFRLRVRGTPVHVAYSETGTSAILSAMHLIRAFEEYTKELNAQAVRDPWFGQVKNPIKFNVGIIKGGDWASSTAAWCELDCRLGLLTGDTPQEAMRGIEKCLADAQATDSFLSENPAELVWSGFQADPAVCEPGGVAEDVLTAAHKAAFNAPLDARLSTAVNDTRYYSVDYGIPALCYGPYGQGPHAFDERIDLESLRKTTLSIALFVAEWCGLRKL | not soluble |
| MGSDKIHHHHHHMAYQLRSAALTNYVEVARAVGLDPYQQLRAARISRSVLLDPDIRIPAQAVSRLLESSANAAGIQDFGLRMAETRQLSNLGPLAFAMRQEPTLRRALESMARYLRLQNEAIAMRIEEAEGLVMLRQEALTGVAGSLRQSTDLVVGVLYRVLALVLGPKWRPRSICFSHAAPGSTAMYLRLFGMPVLFNQEFDGIICVASDLEVPLPSYDPTMARQVQQYLDTMLAQSDATISDKVRRLVLALLPSGACTIERVAQHMGVDVRTVQRRLANYDETFSAIVTATRVDLATRYLENRERPLSEVATLLGFGSLSAFSRWFGGHFGCSVSKWRAKGFAKAVKKEGAGRSH | not soluble |
| MGSDKIHHHHHHMCMDRAICGNFYYGGKFDYLEVIVSDGKIAGIKKDAGNVPKTNYDGAILPAATDIHVHFRTPGETEKEDFGSGSLSAIYGGTTYVMDMPNNRFPITDYNAFGDKLGSIDSTSFADFSLYSMETGKNAMLLDRRSIGLKVYLGGSTNSTGTEVIEEGDIRKINEMNYPVVFHGESERCLKTHQMEEKNLRDHNLARPIDCEIEAAKYVSGLDIKTKIMAHVSSPDVTGNFLREVTPHHLLLNDEMPLGSFGKVNPPLRDSRTQKRLLDDYISGKFDILSSDHAPHTEDDKREFEFAKSGIIGVETRVPLFLALAQKKIVPLDVLYRTAIENPPSIFGIKKGKIEIGYDADFMVIDFTSMKRINDNRLHSKFPVSPFNGMDAIFPSHVIMRGNVVIDRYEDISDPMGVFIPKPQKE | not soluble |
| MGSDKIHHHHHHMCSEGLRERYVNPYTDFAFKLLFGTDLNKEILIGFLNALFDGKQVIEDVIYLNTEHLGSKETDRRAVFDVYCENEKGEKILIEMQRGEQQFFKDRSIYYATYPIREQAIKGEIWNYELKAVYVIGILNFALDDVSSSGFRHEVKLMDTTTHEVFFDKLTFVYLEMPKFHKTEQELDTLFDKWMFVLKNLARLMERPTSLQERVFNRLFEAAEIAQFSKENLYAYEESLKVYRDWNNVINTAIQKGIAEGEWMKAKAIAGNLKNAGLSIAEIAKVTGLSEDEINSL | not soluble |
| MGSDKIHHHHHHMDAPYVSMWTSCSGGCSNNMYQLPANYPMKEKRDNEAEHTEGRLSKNERIERQLNSLYDFRFNIVKSRTEYRAANTSGLYQPVTKFALNSFRRKLDVTAGITTSAENIRMILESDFANKVHPIREYLTALPLLNPAGHGYIKKLLNTVQVANPGEWEEYFTKWLVGVVANAMNDTGCQNHTCLVLTGDNQGQFKTWWLDNLCPSSLKNYLFTGKIDPQSKDILTLIAEYLFINIDDQLKELNKQNENALKNLITTPAVKYRRPYDIYIEEYPHLASFMASVNGNEFLTDPTGNRRFLPFEVLHIDKPTAESINMDNVYSEIMYLYRQGVRYWFNDAEIEELHLTNAEFEVQTVEFEMLMQYFEKPTEEEESLFFMTTAQILTCLRDVCPMQLSEKRLGEALRKAGFKRVQKRISNCNYSVYGYRIKPVSIPYTDNDYG | not soluble |
| MGSDKIHHHHHHMDEQLEQLMRQLSGLNEQVRNGAVYQSLGTRLGKLMDGIQRRRRTAVVLPDDQDGVKDVLAELRHQLEQNVPVTLTHEKLTLLTAHLSSTDMALRYQGINFTLYDALQQDALDSAQMAFLLDELSRPDALFSHILEPANTAVFGRSARVAMLAVILHFVTPDVQSHTPDLRRIVILAAMYLCLETDTRGFVNQHGWAHAFTAITDLLTVLAGTEALPRADKLFLMMTLLERVKRLNTPLIYGENDRMAMYLSELANRHQLYADTLLLSLKQWRQQVALHRRPDTIAGWNRFFNRKRLLDSLRLQSELPASLQKYLNSTIDFLG | not soluble |
